Test results: paper PMC5014334

Molecular target: glutathione-S-transferase (GST)-CDK1 fusion protein (not stated (amplified from RNA of Vero cells; African green monkey from memory))

Question: With “TrxA-His-p17 fusion protein (natural protein)” as the substance, how does the in vitro kinase assay: vimentin-Ser 56 phosphorylation of GST-vimentin (2 μM) by GST-CDK1 (10 nM) and GST-cyclin B1 (10 nM) with increasing TrxA-His-p17; Ki of p17 read?
Answer: 0.1 µM
